Reference: the supplement of paper PMC9170038

Tested on: MS2 coat protein
Test: apparent KD of MS2 coat protein; higher = weaker reporter binding
Conditions: Eterna round: R107
Procedure, shortened: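 Titration buffer: 100 mM Tris-HCl pH 7.5, 80 mM KCl, 4 mM MgCl2, without or with constant ligand. Designed RNA switches transcribed on-chip from Illumina sequencing clusters received SNAP-549-labelled MS2 coat protein in twofold steps from 0.7 or 1.5 nM to 3 µM. Apparent KD is the median per design of fits to normalised cluster binding curves.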

[1] = input ligand: theophylline 20 uM
[2] = input ligand: theophylline 2 mM
[3] = input ligand: tryptophan 2.4 mM

Row | Sequence | apparent KD of MS2 coat protein (input ligand: arginine 13.2 mM) | apparent KD of MS2 coat protein (input ligand: none) | apparent KD of MS2 coat protein [1] | apparent KD of MS2 coat protein [2] | apparent KD of MS2 coat protein [3]
1 | AGAUGUAGCGGAAGGAGCGACAUGAGGAUCACCCAUGUCUCCCGUUGUGGGAGUUCCUUAGGUCAGGUAGGUCGCCGUUACGUCA [Omei Arg B SS B v2] | 121 nM | 230 nM | 153 nM | 259 nM | 132 nM
2 | AGAUUAAAGAGUGAUACCAGACUACAUGAGGAUCACCCAUGUUACAUUUGAGUAGCUUUAGUCCCUUGGCAGCACUUUAUGUACA [JR_Nu_ExcTheophyB_Sub023] | 45.4 nM | – | 42.9 nM | – | 54.2 nM
3 | AGAUUCGACACGGCCGCCACUCGUGCCGGAUUACCGAGUGUCGAACAUGAGGAUCACCCAUGUACGAGGACCGGGUGUUGAGUCU [XTryp B #17] | 35.1 nM | – | 53.9 nM | 48.1 nM | –
4 | AGAUUCGACACGGCCGCCACUUGGAGUGGCUGCUAGCAUGUUACACAUGAGGAUCACCCAUGUCUAAGGACCGGGUGUUGAGUCU [XTryp B #24] | 30.7 nM | – | 79.2 nM | 63.5 nM | –
5 | AGAUUUAUUCUGACCGGGCUCAUUCCUGAAGGAGCGCAGAACAAUGCAGGUAGGUCGCAGGACAUGAGGAUCACCCAUGUCAGGC [Inmainzais] | 15.5 nM | 22.1 nM | 30.2 nM | 27.2 nM | 24.6 nM
6 | AGCAACAAGUCGGCCGCCACUCAUAUUACAUGAGGAUCACCCAUGUUUACAUCAAGGUCAUAAUAGAGGACCGGGACAGUUGCAU [JR_SSTryptoB_Sub017] | 24.5 nM | – | 39.3 nM | 41.5 nM | –
7 | AGCACUGUGACGGCCGCCACUACAUAAGUUGGGUGGUCAGGUUCAUUACAUGAGGAUCACCCAUGUAGGACCGGGUCUCAGUGCA [Omei Trp Exc B A v9] | 9.36 nM | 11.2 nM | 15.7 nM | 12.8 nM | 10.3 nM
8 | AGCAUUGUAACAGAUACCAGACUUUUAAUGCCUCUAAUUACAUGAGGAUCACCCAUGUUUGUCCCUUGGCAGCUGUUAUGAUGCA [JR_ExcTheophyB_Sub009] | 84.1 nM | – | 174 nM | – | 125 nM
9 | AGCCAUGGAAACAUGGCGGCGGCAUGAGCGCGAGGACCGGUACGGCCGCCACUCGGGCGACAUGAGGAUCACCCAUGUUCCUCAA [ETA NP+V+V2 #21] | 27.2 nM | 27.5 nM | 54.1 nM | 38.2 nM | 340 nM
10 | AGCCCGUGAGCGGCCGCCACUGGAGGCUUUGCGCGACAUGAGGAUCACCCAUGUGUGCCCGGCGUUAGGACCGGGCUCACGUGGU [#1 Same State - Tryptophan B Attempt #20 (HarryS)] | 43.8 nM | 182 nM | 302 nM | 288 nM | 110 nM
11 | AGCCCUGUGCUAGAUACCAGCUACAUGAGGAUCACCCAUGUGCGUCAGAAAUGACUGUGUAGCCCUUGGCAGCUACUCGCAUGUA [Exclusion - Theophylline B (Freestyle 6)] | 13 nM | – | 20.2 nM | – | 13.5 nM
12 | AGCCCUGUGCUAGAUACCAGCUACAUGAGGAUCACCCAUGUGCGUCAGGACUGACUGUGUAGCCCUUGGCAGCUACUCGCAUGUA [Exclusion - Theophylline B (Freestyle 5)] | 14.4 nM | – | 20 nM | – | 14.5 nM
